Assay results taken from patent publication US20140120095A1 (Boehringer Ingelheim, published 2014).

Columns and labels:
[1] = target: T1, recombinant human DLL4 (C-terminally His-tagged extracellular domain, R&D Systems) (human, UniProt Q9NR61 25-522, biotinylated in the competition ELISA); assay: SPR (Biacore), rhDLL4
T1 construct: also called rhDLL4; hDLL4
Procedure, shortened: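 SPR with DLL4 on the chip; VHH or Fab injected at 10-300 nM for 2 minutes, 20 min dissociation, in HBS-N pH7.4, regenerating with glycine pH1.5 and HCl. KD derived from association and dissociation rate constants by 1:1 Langmuir fit where the curves allowed.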

[2] = target: T2, recombinant mouse DLL4 (C-terminally His-tagged extracellular domain, R&D Systems) (mouse, UniProt Q9JI71 27-532); assay: SPR (Biacore), rmDLL4
T2 construct: extracellular domain; also called rmDLL4; mDLL4
T2 sequence (Q9JI71 27-532): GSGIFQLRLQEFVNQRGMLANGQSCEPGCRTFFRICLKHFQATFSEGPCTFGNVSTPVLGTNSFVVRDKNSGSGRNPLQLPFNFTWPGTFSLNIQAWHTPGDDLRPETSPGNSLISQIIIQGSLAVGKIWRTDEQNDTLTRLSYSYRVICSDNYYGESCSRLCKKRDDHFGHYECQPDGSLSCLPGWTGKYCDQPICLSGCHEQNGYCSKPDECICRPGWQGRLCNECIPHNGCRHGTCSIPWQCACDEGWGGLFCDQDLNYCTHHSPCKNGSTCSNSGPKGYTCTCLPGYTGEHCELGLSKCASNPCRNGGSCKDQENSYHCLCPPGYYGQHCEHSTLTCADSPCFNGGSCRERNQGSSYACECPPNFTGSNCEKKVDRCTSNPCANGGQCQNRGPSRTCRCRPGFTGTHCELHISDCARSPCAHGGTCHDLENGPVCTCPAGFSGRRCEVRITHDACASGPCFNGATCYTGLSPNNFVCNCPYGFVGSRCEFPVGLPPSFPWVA

[3] = target: T3, human DLL4 expressed on cells (CHO-hDLL4; HEK293-hDLL4) (human, UniProt Q9NR61 27-685); assay: cell-based or functional assay
[4] = target: T4, cynomolgus DLL4 expressed on CHO cells (cynomolgus, UniProt Q9NR61 27-685 (human entry)); assay: FACS on CHO-cDLL4 cells
T4 construct: also called cDLL4; CHO-cDLL4
T4 chain: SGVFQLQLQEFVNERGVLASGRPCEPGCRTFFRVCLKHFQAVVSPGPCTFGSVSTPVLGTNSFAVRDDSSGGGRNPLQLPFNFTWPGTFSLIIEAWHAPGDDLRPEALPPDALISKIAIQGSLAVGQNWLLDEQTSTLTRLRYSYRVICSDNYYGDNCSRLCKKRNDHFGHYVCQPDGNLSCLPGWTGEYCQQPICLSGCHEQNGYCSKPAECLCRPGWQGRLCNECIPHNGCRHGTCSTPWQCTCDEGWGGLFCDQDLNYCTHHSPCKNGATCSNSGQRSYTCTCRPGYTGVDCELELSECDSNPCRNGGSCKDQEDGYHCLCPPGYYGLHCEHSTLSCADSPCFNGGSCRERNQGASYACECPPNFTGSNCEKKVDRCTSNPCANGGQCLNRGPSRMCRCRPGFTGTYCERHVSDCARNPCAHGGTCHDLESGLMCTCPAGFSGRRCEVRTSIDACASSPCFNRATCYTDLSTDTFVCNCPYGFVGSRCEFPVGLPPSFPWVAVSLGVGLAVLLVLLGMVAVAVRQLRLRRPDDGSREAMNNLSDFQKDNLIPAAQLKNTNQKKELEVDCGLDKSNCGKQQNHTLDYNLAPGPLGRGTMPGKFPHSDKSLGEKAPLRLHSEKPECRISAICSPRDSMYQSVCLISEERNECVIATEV

[5] = target: T3, human DLL4 expressed on cells …; assay: FACS on CHO-hDLL4 cells
[6] = target: T5, mouse DLL4 expressed on CHO cells (mouse, UniProt Q9JI71 27-686); assay: FACS on CHO-mDLL4 cells
T5 construct: whole, on cells; also called mDLL4; CHO-mDLL4
T5 sequence (Q9JI71 27-686): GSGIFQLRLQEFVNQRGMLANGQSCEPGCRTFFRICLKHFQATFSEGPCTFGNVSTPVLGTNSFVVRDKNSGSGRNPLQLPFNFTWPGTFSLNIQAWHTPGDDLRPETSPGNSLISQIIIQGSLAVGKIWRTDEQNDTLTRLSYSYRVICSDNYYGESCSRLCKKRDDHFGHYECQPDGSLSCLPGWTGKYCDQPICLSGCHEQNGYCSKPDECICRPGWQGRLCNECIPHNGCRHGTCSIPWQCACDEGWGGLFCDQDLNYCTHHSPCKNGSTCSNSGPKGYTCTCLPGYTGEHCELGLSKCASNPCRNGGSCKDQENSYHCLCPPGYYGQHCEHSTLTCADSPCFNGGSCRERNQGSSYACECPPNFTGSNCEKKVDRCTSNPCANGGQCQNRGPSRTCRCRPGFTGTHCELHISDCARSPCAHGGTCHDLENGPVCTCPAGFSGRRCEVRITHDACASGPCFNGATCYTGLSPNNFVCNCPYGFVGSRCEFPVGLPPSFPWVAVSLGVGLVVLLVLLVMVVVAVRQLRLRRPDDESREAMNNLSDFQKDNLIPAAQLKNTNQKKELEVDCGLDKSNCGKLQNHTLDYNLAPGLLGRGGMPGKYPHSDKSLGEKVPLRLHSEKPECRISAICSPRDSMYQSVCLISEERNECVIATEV

[7] = target: T1, recombinant human DLL4 (C-terminally …); assay: SPR (Biacore); summary table
[8] = target: T2, recombinant mouse DLL4 (C-terminally …); assay: SPR (Biacore); summary table
[9] = target: T3, human DLL4 expressed on cells …; assay: competition FMAT CHO-hDLL4; summary table
[10] = target: T5, mouse DLL4 expressed on CHO cells; assay: competition FMAT CHO-mDLL4; summary table
[11] = target: T4, cynomolgus DLL4 expressed on CHO cells; assay: FACS; summary table, column taken as cDLL4
[12] = target: T3, human DLL4 expressed on cells …; assay: FACS; summary table, column taken as hDLL4
[13] = target: T5, mouse DLL4 expressed on CHO cells; assay: FACS; summary table, column taken as mDLL4
[14] = target: T1, recombinant human DLL4 (C-terminally …); assay: competition ELISA hDLL4/hNotch1-Fc; summary table
[15] = target: T3, human DLL4 expressed on cells …; assay: competition FMAT, labelled hNotch1-Fc on CHO-hDLL4 cells
[16] = target: T5, mouse DLL4 expressed on CHO cells; assay: competition FMAT, labelled hNotch1-Fc on CHO-mDLL4 cells
[17] = target: T1, recombinant human DLL4 (C-terminally …); assay: competition ELISA, biotinylated hDLL4 to coated hNotch1-Fc

B1: DLLBII136C07 (VHH, not shown: small tags and cut ends)
VHH: EVQLVESGGGLVQPGGSLRLSCAASGFTFGSYDMSWVRRSPGKGPEWVSSINSGGGSTYYADYVKGRFTISRDNAKNTLYLQMNSLKPEDTAVYYCAADRYIWARQGEYWGAYEYDYWGQGTQVTVSS
- Kd [1]: 0.6 nM
- koff [1]: 0.00039 s⁻¹
- kon [1]: 620000 M⁻¹ s⁻¹
- Kd [2]: 2.6 nM
- koff [2]: 0.0013 s⁻¹
- kon [2]: 500000 M⁻¹ s⁻¹
- IC50, DLL4-mediated reporter assay [3]: 226 nM
- EC50 [4]: 3.5 nM
- EC50 [5]: 10.9 nM
- EC50 [6]: 8.3 nM
- Kd [7]: 0.6 nM
- Kd [8]: 2.6 nM
- IC50 [9]: 8 nM
- IC50 [10]: 31.2 nM
- EC50 [11]: 3.5 nM
- EC50 [12]: 10.9 nM
- EC50 [13]: 8.3 nM
- IC50 [14]: 1.4 nM
- IC50 [15]: 8 nM
- IC50 [16]: 31.2 nM
- IC50 [17]: 1.4 nM
